T1: cCD137-mFc-Avi (cynomolgus monkey)
T1 construct: 139 used; also called cyno CD137-mFc-Avi; recombinant cyno CD137
T1 chain: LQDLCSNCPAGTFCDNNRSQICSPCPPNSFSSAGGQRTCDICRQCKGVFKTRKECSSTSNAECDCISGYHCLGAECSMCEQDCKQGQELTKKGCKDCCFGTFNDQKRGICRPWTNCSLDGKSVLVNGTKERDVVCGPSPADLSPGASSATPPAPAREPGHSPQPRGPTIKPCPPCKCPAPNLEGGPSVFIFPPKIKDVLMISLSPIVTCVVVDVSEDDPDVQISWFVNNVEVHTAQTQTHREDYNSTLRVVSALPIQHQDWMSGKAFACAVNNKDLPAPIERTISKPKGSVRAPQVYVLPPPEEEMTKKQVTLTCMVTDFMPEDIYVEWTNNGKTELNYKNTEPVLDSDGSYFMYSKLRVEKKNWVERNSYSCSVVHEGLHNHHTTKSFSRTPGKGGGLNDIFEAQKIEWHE

T2: cOX40-mFc (cynomolgus)
T2 construct: Dimeric; also called cyno OX40-mFc
T2 chain: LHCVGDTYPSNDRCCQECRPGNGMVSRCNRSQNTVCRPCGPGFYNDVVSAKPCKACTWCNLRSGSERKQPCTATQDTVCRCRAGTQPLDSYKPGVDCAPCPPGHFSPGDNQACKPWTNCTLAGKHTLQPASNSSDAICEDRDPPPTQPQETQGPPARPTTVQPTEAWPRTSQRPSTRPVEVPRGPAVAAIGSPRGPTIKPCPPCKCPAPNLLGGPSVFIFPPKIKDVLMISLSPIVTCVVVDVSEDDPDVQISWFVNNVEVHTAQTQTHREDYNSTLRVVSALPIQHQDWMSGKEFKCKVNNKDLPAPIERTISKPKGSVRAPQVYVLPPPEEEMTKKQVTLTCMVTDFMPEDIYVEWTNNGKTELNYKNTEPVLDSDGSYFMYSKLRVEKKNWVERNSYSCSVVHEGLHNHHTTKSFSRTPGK

T3: hOX40-mFc (human)
T3 construct: Dimeric; also called human OX40-mFc
T3 chain: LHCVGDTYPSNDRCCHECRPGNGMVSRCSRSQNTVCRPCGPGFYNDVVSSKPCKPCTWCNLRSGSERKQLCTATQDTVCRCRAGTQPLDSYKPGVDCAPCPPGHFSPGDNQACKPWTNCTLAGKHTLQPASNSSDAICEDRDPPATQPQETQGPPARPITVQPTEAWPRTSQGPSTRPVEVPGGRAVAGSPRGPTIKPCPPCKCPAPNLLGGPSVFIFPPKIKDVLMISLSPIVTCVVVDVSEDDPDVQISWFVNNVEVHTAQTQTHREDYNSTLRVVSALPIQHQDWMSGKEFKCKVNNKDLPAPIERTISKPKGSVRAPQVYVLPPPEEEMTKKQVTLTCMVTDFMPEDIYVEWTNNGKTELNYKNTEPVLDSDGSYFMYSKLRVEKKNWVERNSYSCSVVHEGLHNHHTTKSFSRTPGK

T4: human OX40 expressed on DO11.10 cells (DO11.10-hOX40) (human, UniProt P43489 29-277)
T4 sequence: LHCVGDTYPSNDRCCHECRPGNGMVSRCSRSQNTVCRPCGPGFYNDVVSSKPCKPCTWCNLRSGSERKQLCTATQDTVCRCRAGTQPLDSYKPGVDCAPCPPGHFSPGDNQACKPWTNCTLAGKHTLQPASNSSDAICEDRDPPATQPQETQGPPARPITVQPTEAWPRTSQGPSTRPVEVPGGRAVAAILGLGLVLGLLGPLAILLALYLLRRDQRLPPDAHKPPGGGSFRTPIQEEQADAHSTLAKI

T5: cynomolgus OX40 expressed on DO11.10 cells (DO11.10-cOX40) (cynomolgus, UniProt P43489 29-277 (human entry))
T5 chain: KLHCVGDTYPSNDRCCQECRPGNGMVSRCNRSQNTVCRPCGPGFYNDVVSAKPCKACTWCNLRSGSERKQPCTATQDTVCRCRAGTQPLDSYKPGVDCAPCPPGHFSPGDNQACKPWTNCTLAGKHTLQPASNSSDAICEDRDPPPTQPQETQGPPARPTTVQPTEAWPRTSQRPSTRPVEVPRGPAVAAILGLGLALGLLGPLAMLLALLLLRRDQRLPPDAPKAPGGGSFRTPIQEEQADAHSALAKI

T6: cynomolgus CD137 expressed on DO11.10 cells (DO11.10-cCD137) (cynomolgus monkey, UniProt Q07011 24-255 (human entry))
T6 chain: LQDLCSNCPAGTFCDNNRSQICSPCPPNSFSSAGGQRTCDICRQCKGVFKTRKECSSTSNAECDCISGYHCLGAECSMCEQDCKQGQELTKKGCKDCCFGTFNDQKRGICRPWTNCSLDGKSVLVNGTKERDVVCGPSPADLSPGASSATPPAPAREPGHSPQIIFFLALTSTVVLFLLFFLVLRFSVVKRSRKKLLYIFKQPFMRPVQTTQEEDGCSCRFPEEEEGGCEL


Key:
hCD137-mFc-Avi = molecular target: T7, hCD137-mFc-Avi (human); assay: SPR, antibody captured via anti-human Fc, dimeric antigen flowed, 1:1 fit
T7 construct: Dimer; a biotinylated version was used where the text says so; also called human CD137-mFc-Avi; hCD137-mFc-Avi-Bio
Description: (§1) For CD137 affinity determination, a Biacore CM5 chip (GE Healthcare) was coated with anti-human Fc using a Human Antibody Capture Kit (GE Healthcare) according to manufacturer's conditions, to a surface density of approximately 4000 RU. […] Human or cynomolgus CD137 (hCD137-mFc-Avi or cCD137-mFc-Avi) was flowed over at a range of concentrations in a three-fold dilution series starting at 200 nM, at a flow rate of 70 μl/min. The association time was 2 min and the dissociation time was 8 min. Running buffer was HBS-EP (GE Healthcare BR100188). Flow cells were regenerated by injecting 3M magnesium chloride at a flow rate of 30 μl/min for 30 seconds.
(§2) The binding kinetics were fit with a 1:1 Langmuir model to generate binding association (kₐ) and dissociation (kd) rates. Equilibrium binding constants (KD) were calculated by dividing the dissociation rate by the association rate for each sample. Data analysis was performed with BiaEvaluation software version 3.2.

cCD137-mFc-Avi = molecular target: T1, cCD137-mFc-Avi; assay: as above
Description: as §1, §2

cOX40-mFc = molecular target: T2, cOX40-mFc; assay: SPR, antibody captured via anti-human Fab, dimeric antigen flowed, 1:1 fit
Description: (§3) For OX40 affinity determination a Biacore CM5 chip was coated with anti-human Fab using a Human Fab Capture Kit (GE Healthcare 28958325) according to manufacturer's conditions, to a surface density of approximately 8000 RU. […] The association time was 2 min and the dissociation time was 8 min. Running buffer was HBS-EP. Flow cells were regenerated by injecting glycine-HCl at pH 2.1 at a flow rate of 30 μl/min for 30 seconds.
as §2

hOX40-mFc = molecular target: T3, hOX40-mFc; assay: as above
Description: as §3, §2

[1] = molecular target: T8, human CD137 expressed on DO11.10 cells (DO11.10-hCD137) (human, UniProt Q07011 24-255); assay: cell-based or functional assay
Target sequence in this assay (Q07011 24-255): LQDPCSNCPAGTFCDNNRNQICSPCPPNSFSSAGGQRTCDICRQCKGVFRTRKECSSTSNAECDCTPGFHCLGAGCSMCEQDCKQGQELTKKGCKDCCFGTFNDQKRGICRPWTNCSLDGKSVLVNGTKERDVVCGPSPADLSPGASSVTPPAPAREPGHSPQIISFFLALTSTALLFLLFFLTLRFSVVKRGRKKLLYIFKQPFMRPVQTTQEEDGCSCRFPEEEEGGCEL

[2] = molecular target: T4, human OX40 expressed on DO11.10 cells …; assay: cell-based or functional assay
[3] = molecular target: T5, cynomolgus OX40 expressed on DO11.10 …; assay: flow cytometry on DO11.10 cells expressing the target
Description: (§4) 50 μl of the antibody dilutions were added to the wells containing cells (final volume 100 μl) and incubated at 4° C. for 1 hour. […] The plates were washed and resuspended in 100 μl of PBS containing DAPI (Biotium, cat no 40043) at 1 μg/ml. The plates were analysed using a Canto II flow cytometer (BD Bioscience) and the data analysed using FlowJo. Dead cells were identified by their higher fluorescence on the UV (405 nm/450/50) channel and excluded from analysis. […] The GMFI data was fit using log (agonist) vs response (three parameters) in Graph Pad Prism Software to generate EC₅₀ values.

[4] = molecular target: T6, cynomolgus CD137 expressed on DO11.10 …; assay: as above
Description: as §4

[5] = molecular target: T4, human OX40 expressed on DO11.10 cells …; assay: as above
Description: as §4

[6] = molecular target: T8, human CD137 expressed on DO11.10 cells …; assay: as above
Description: as §4

Binder	Kd (hCD137-mFc-Avi) [nM]	Kd (cCD137-mFc-Avi) [nM]	Kd (cOX40-mFc) [nM]	Kd (hOX40-mFc) [nM]	EC50 of mIL-2 release, DO11.10-hCD137 assay, crosslinked [1] [nM]	Emax of mIL-2 release, DO11.10-hCD137 assay, crosslinked [1] [pg/mL]	SEA assay (PBMC), hIL-2 max response, crosslinked [2] [pg/mL]	SEA assay (PBMC), hIL-2 max response, no crosslinker [2] [pg/mL]	SEA assay (PBMC), hIL-2 release EC50, crosslinked [2] [nM]	SEA assay (PBMC), hIL-2 release EC50, no crosslinker [2] [nM]	EC50 [3] [nM]	EC50 [4] [nM]	EC50 [5] [nM]	EC50 [6] [nM]	binding result [4]	binding result [6]
FS20-22-49AA/FS30-10-3 (bispecific antibody, human IgG1, kappa, L234A L235A, V domains shown, IgG1 with LALA; also called OX40/CD137 mAb^2) VH: EVQLLESGGGLVQPGGSLRLSCAASGFTFSSYDMSWVRQAPGKGLEWVSDIDPTGSKTDYADSVKGRFTISRDNSKNTLYLQMNSLRAEDTAVYYCARDLNVYGFDYWGQGTLVTVSS VL: EIVLTQSPGTLSLSPGERATLSCRASQSVSSSYLAWYQQKPGQAPRLLIYGASSRATGIPDRFSGSGSGTDFTLTISRLEPEDFAVYYCQQSYSYPVTFGQGTKVEIKR	0.342	0.318	1.11	0.285	6.1	17000	33900	34900	0.38	0.29	0.394	0.0682	0.175	0.12	–	–
FS20-22-49AA/FS30-5-37 (bispecific antibody, human IgG1, kappa, L234A L235A, V domains shown, IgG1 with LALA; also called OX40/CD137 mAb^2) VH: EVQLLESGGGLVQPGGSLRLNCAASGFTFSSYAMSWVRQAPGKGLEWVSAISGSGGSTYYADSVKGRFTISRDNSKNTLYLQMNSLRAEDTAVYYCARSYDKYWGSSIYSGLDYWGQGTLVTVSS VL: EIVLTQSPGTLSLSPGERATLSCRASQSVSSSYLAWYQQKPGQAPRLLIYGASSRATGIPDRFSGSGSGTDFTLTISRLEPEDFAVYYCQQYYSYYPVTFGQGTKVEIKR	3.85	6.42	1.63	0.385	13.4	18100	30700	29200	0.5	0.51	0.355	0.111	0.201	0.258	–	–

Now from value to binder:

Kd (hCD137-mFc-Avi) [nM]	Kd (cCD137-mFc-Avi) [nM]	Kd (cOX40-mFc) [nM]	Kd (hOX40-mFc) [nM]	EC50 of mIL-2 release, DO11.10-hCD137 assay, crosslinked [1] [nM]	Emax of mIL-2 release, DO11.10-hCD137 assay, crosslinked [1] [pg/mL]	SEA assay (PBMC), hIL-2 max response, crosslinked [2] [pg/mL]	SEA assay (PBMC), hIL-2 max response, no crosslinker [2] [pg/mL]	SEA assay (PBMC), hIL-2 release EC50, crosslinked [2] [nM]	SEA assay (PBMC), hIL-2 release EC50, no crosslinker [2] [nM]	EC50 [3] [nM]	EC50 [4] [nM]	EC50 [5] [nM]	EC50 [6] [nM]	binding result [4]	binding result [6]	Binder
0.255	7.24	1.02	0.37	9.5	17200	23700	24900	2.33	1.36	0.368	0.107	0.152	0.29	–	–	FS20-22-49AA/FS30-10-12 (bispecific antibody, human IgG1, kappa, L234A L235A, V domains shown, IgG1 with LALA; also called OX40/CD137 mAb^2) VH: EVQLLESGGGLVQPGGSLRLSCAASGFTFSSYDMSWVRQAPGKGLEWVSDIDPTGSKTDYADSVKGRFTISRDNSKNTLYLQMNSLRAEDTAVYYCARDLTVYGFDYWGQGTLVTVSS VL: EIVLTQSPGTLSLSPGERATLSCRASQSVSSSYLAWYQQKPGQAPRLLIYGASSRATGIPDRFSGSGSGTDFTLTISRLEPEDFAVYYCQQSYSYPVTFGQGTKVEIKR
–	–	–	–	–	–	–	–	–	–	–	–	–	–	no binding	no binding	FS20-22-49AA/4420 (antibody, human IgG1, kappa, L234A L235A, also called OX40/FITC mock mAb^2; FS20-22-49 Fcab in mock (4420 LALA) mAb^2 format) heavy: EVKLDETGGGLVQPGRPMKLSCVASGFTFSDYWMNWVRQSPEKGLEWVAQIRNKPYNYETYYSDSVKGRFTISRDDSKSSVYLQMNNLRVEDMGIYYCTGSYYGMDYWGQGTSVTVSSASTKGPSVFPLAPSSKSTSGGTAALGCLVKDYFPEPVTVSWNSGALTSGVHTFPAVLQSSGLYSLSSVVTVPSSSLGTQTYICNVNHKPSNTKVDKKVEPKSCDKTHTCPPCPAPEAAGGPSVFLFPPKPKDTLMISRTPEVTCVVVDVSHEDPEVKFNWYVDGVEVHNAKTKPREEQYNSTYRVVSVLTVLHQDWLNGKEYKCKVSNKALPAPIEKTISKAKGQPREPQVYTLPPSRDEYWDQEVSLTCLVKGFYPSDIAVEWESNGDEQFAYKTTPPVLDSDGSFFLYSKLTVDQYRWNPADYFSCSVMHEALHNHYTQKSLSLSPG light: DVVMTQTPLSLPVSLGDQASISCRSSQSLVHSNGNTYLRWYLQKPGQSPKVLIYKVSNRFSGVPDRFSGSGSGTDFTLKISRVEAEDLGVYFCSQSTHVPWTFGGGTKLEIKRTVAAPSVFIFPPSDEQLKSGTASVVCLLNNFYPREAKVQWKVDNALQSGNSQESVTEQDSKDSTYSLSSTLTLSKADYEKHKVYACEVTHQGLSSPVTKSFNRGEC
